In patent CN117677637A (PETEMEDI LTD, dated 2024):
Values belong to the binder of their own block, whether it stands above or below them.

Assays:
[1] = biological target: T1, 犬CD20 (canine CD20, B淋巴细胞抗原CD20, full length, wild type) (canine (dog), UniProt Q3C2E2 1-297); experiment: flow cytometry on MDCK cells expressing wild-type canine CD20 (positive control of epitope mapping)
T1 construct: Stably expressed from full-length cDNA on MDCK II (or HEK293) cells for flow cytometry and ADCC; naturally expressed on CLBL-1 canine lymphoma cells in the CDC assay; also called cCD20; MS4A1
T1 chain: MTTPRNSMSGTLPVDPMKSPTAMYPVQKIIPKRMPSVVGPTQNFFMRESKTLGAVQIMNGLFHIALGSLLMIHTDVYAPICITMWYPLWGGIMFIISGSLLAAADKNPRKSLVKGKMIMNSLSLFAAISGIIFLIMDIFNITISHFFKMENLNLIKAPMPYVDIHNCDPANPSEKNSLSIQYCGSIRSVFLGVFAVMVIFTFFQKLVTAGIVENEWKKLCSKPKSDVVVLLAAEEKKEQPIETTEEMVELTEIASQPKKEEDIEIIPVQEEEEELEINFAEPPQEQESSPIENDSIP

[2] = biological target: T1, 犬CD20 (canine CD20, B淋巴细胞抗原CD20, full …); experiment: flow cytometry, 10 ug/ml antibody on MDCK II cells expressing canine CD20 (Fig 3A); equal to 4E1-7
[3] = biological target: T1, 犬CD20 (canine CD20, B淋巴细胞抗原CD20, full …); experiment: flow cytometry on cells expressing canine CD20, against PMX003 (Fig 3B); slight decrease
[4] = biological target: T1, 犬CD20 (canine CD20, B淋巴细胞抗原CD20, full …); experiment: flow cytometry on cells expressing canine CD20, against PMX003 (Fig 3B); unchanged

- binding result [4]: binds
B5: PMX009 (antibody, V domains shown)
VH: EVQLVESGGDLVKPGGSLRLSCVASGITFSRYHMSWVRQAPGKGLQWVAYINSGGSSTSYPDAVKGRFTISRDNAKNTLYLQMDSLRAEDTALYYCTTFDYWGQGTLVTVSS
VL: SYVLTQLPSKNVALKQPAHITCGGDNIGSKSVHWYQQKLGQAPVLIIYYDSRRPTGIPERFSGANSGNTATLTISGALAEDEADYYCQVWDSSANVFGGGTHLTVL
notes: PMX003 heavy chain; Constant regions not restated (PMX003: dog IGGB / dog IGLC5); also called PMX009 mAb; NVA

- binding result [4]: binds
B6: PMX008 (antibody, V domains shown)
VH: EVQLVESGGDLVKPGGSLRLSCVASGITFSRYHMSWVRQAPGKGLQWVAYINSGGSSTSYPDAVKGRFTISRDNAKNTLYLQMDSLRAEDTALYYCTTFDYWGQGTLVTVSS
VL: SYVLTQLPSKEVTLKQPAHITCGGDNIGSKSVHWYQQKLGQAPVLIIYYDSRRPTGIPERFSGANSGNTATLTISGALAEDEADYYCQVWDSSANVFGGGTHLTVL
notes: PMX003 heavy chain; Constant regions not restated (PMX003: dog IGGB / dog IGLC5); also called PMX008 mAb; EVT

- binding result [3]: binds
B7: PMX006 (antibody, V domains shown)
VH: EVQLVESGGDLVKPGGSLRLSCVASGITFSRYHMSWVRQAPGKGLQWVAYINSGGSSTSYPDAVKGRFTISRDNAKNTLYLQMDSLRAEDTALYYCTTFDYWGQGTLVTVSS
VL: SYVLTQLPSKQVTLKQPAHITCGGDNIGSKSVHWYQQKLGQAPVLIIYYDSRRPTGIPERFSGANSGNTATLTISGALAEDEADYYCQVWDSSANVFGGGTHLTVL
notes: PMX003 heavy chain; Constant regions not restated (PMX003: dog IGGB / dog IGLC5); also called PMX006 mAb; QVT突变体

The remaining lines, values behind:

B1: PMX003 (antibody, V domains shown)
VH: EVQLVESGGDLVKPGGSLRLSCVASGITFSRYHMSWVRQAPGKGLQWVAYINSGGSSTSYPDAVKGRFTISRDNAKNTLYLQMDSLRAEDTALYYCTTFDYWGQGTLVTVSS
VL: SYVLTQLPSKNVTLKQPAHITCGGDNIGSKSVHWYQQKLGQAPVLIIYYDSRRPTGIPERFSGANSGNTATLTISGALAEDEADYYCQVWDSSANVFGGGTHLTVL
notes: Fully canine mAb; Tested in native form and in an a-fucosylated form (made in Fut8 knockout CHO cells) in CDC/ADCC; also called PMX003 mAb
- binding result [1]: binds

B2: PMX002 (antibody, V domains shown)
VH: EVQLVESGGDLVKPGGSLRLSCVASGIIFSNYHMSWVRQVPGKGLQWVAYINSGGSTINYADGVKGRFTISRDNAKNSLYLQMNSLRGEDTAVYYCTTYDSWGQGTLVTVSS
VL: SYVLTQLPSKNVTLKQPAHITCGGDNIGSKSVHWYQQKLGQAPVLIIYYDSSRPTGIPERFSGANSGNTATLTISGALAEDEADYYCQVWDSSVNVFGGGTHLTVL
notes: Fully canine mAb; also called PMX002 mAb
- binding result [2]: binds

B3: PMX115 (antibody, V domains shown)
VH: EMQLVESGGALVKPGGSLRLSCVASGFTFRRYHMSWVRQAPGQGLQWVAYIDSDGSPTSYGDSVKGRFTISRDNAKNTLFLQMNSLRVDDTAVYYCTTLDYWGRGTLVTVSS
VL: SYVLTQVPSKSVTLKQPAHITCGGDNIGGKSVHWYQQKLGQAPLLIIYYDTRRPTGIPERFSGANSGNTATLTISRALAEDEADYYCQVWDSSGNVFGGGTHLTVI
notes: also called PMX115 mAb
- binding result [1]: binds

B4: PMX007 (antibody, V domains shown)
VH: EVQLVESGGDLVKPGGSLRLSCVASGITFSRYHMSWVRQAPGKGLQWVAYINSGGSSTSYPDAVKGRFTISRDNAKNTLYLQMDSLRAEDTALYYCTTFDYWGQGTLVTVSS
VL: SYVLTQLPSKAVTLKQPAHITCGGDNIGSKSVHWYQQKLGQAPVLIIYYDSRRPTGIPERFSGANSGNTATLTISGALAEDEADYYCQVWDSSANVFGGGTHLTVL
notes: PMX003 heavy chain; Constant regions not restated (PMX003: dog IGGB / dog IGLC5); also called PMX007 mAb; AVT突变体
- binding result [3]: binds
